One series relates to PAD 2. Nature of the series: Modulation of intracellular calcium and PAD 2 expression in pressure treated astrocytes. Type of series: cell-based, rat. Conditions: astrocytes subjected to 40 mm Hg for 5 hours; 50-200 nM. As for the experimental part:
FIGS. 9A-9B. Modulation of intracellular calcium concentration and PAD 2 expression. The astrocytes were subjected to 40 mm Hg for 5 hours and restored to normal pressure except controls. Pressure treated cells were subjected to (FIG. 9A) indicated concentrations of BAPTA-AM for 24 hours or (FIG. 9B) indicated concentrations of Thapsigargin. Total protein were extracted and transferred on PVDF membrane after SDS-PAGE separation and probed with antibodies to PAD 2 and GPDH, secondary antibodies coupled with IR-700 dye allowed scanning and detection.
Astrocytes from Sprague Dawley rats (Harlan, Indianapolis, Ind.) brain cortex were used for these studies. Mixed glial cell suspensions were prepared from the P3 rat cortex regions following published procedures (Fuss, B., et al., Dev Biol., 218:259-74 (2000)) from which enriched GFAP positive cells were obtained using immunopanning (Yang, P., et al., Brain Res Brain Res Protoc. 12:67-76 (2003)). The astrocytes were exposed to a pressure of 40 mm of Hg for five hours (Yang, J. L., et al., Exp Eye Res. 56:567-74 (1993); Salvador-Silva, M., et al., Glia. 45:364-77 (2004)). Briefly, the cells plated in six well plates (Costar, Cambridge, Mass., USA) at a density of 3-10×10^3 cells/well and grown to semiconfluence in 2 days were incubated with serum free medium overnight. […]

Series [1] deals with PAD2. Nature of the series: Anti-PAD2 Western analysis of optic nerve from glaucomatous donors. Type of series: in vivo, human. Conditions: 85M POAG donor, trabeculectomy plus verapamil; compared with other POAG eyes (86M and 76F). On the procedure:
FIGS. 5A-5D. Elevated level of PAD2 and citrulline in response to pressure. […] Protein extracted from the optic nerve of cadaver Caucasian donor eyes, age and gender are as indicated. All glaucomatous donors suffered elevated IOP and were subjected to surgical intervention except the 76F donor. The 85M donor also received verapamil, a calcium modulator. FIG. 5B, Representative Western analyses with anti-PAD2 of rat brain astrocytes subjected to 40 mm Hg pressure for 5 h then returned to atmospheric pressure for up to 4 days as indicated. FIG. 5C, Representative Western analysis with anti-citrulline of protein extracts (5 μg) from astrocytes subjected to elevated pressure as in FIG. 5B. […]
For these analyses previously described mouse monoclonal antibody (mAb) against PAD2 (Koike, H., et al., Biosci Biotechnol Biochem. 58:2286-7(1994); Koike, H., et al., Biosci Biotechnol Biochem. 59:552-4(1995)) was used. […] For quantitative Western analyses, anti-mouse and anti-rabbit secondary antibody linked to 700 nm or 800 nm IR-dyes were used on an Odyssey Infrared Imaging system according to the manufacturer (Li-Cor Biosciences, Lincoln, Neb.). […]
Other donor eyes that had undergone either surgical or combined surgical and pharmacological intervention to relieve elevated IOP were also analyzed for PAD2. […]

For series [2], the system named is PAD2. Type of series: cell-based, rat. As for the experimental part: Astrocytes from Sprague Dawley rats (Harlan, Indianapolis, Ind.) brain cortex were used for these studies. Mixed glial cell suspensions were prepared from the P3 rat cortex regions following published procedures (Fuss, B., et al., Dev Biol., 218:259-74 (2000)) from which enriched GFAP positive cells were obtained using immunopanning (Yang, P., et al., Brain Res Brain Res Protoc. 12:67-76 (2003)). The astrocytes were exposed to a pressure of 40 mm of Hg for five hours (Yang, J. L., et al., Exp Eye Res. 56:567-74 (1993); Salvador-Silva, M., et al., Glia. 45:364-77 (2004)). Briefly, the cells plated in six well plates (Costar, Cambridge, Mass., USA) at a density of 3-10×10^3 cells/well and grown to semiconfluence in 2 days were incubated with serum free medium overnight. A closed pressurized chamber (5% carbon dioxide) equipped with a manometer was used to subject the cells to elevated pressure. Cells were placed in the chamber and the pressure was elevated to 40 mm Hg. The chamber was subsequently placed in a tissue culture incubator at 37° C. Control cells from identical passage of cell lines were simultaneously incubated in a tissue culture incubator at atmospheric pressure at 37° C. The cells were incubated for 5 h or 1-4 days after pressure treatment. After incubation, cells were trypsinized and subjected to culture or Western analyses. For culture, the cells were plated on a cover slip and allowed 16 hours recovery period and subjected to immunohistochemistry using mouse monoclonal PAD2 and rabbit polyclonal GFAP antibodies. The cells were permeabilized with 200 μl of 0.2% Triton X-100 in phosphate buffer saline pH 7.5 for 1 hour after fixation with 4% paraformaldehyde for 1 hour. Western analyses were performed using antibodies to PAD2 and citrulline as described above.
For treatment of rat cortex astrocytes, shRNA against PAD2 (OpenBiosystems, Cat. #RHS 1764-9214220) was procured from OpenBiosystems in pShag Magic version 2.0 vector (OpenBiosystems). This shRNA contains the sequence (5′[…]′3) (SEQ ID NO: 7) from the coding region of PAD2 (see FIG. 14). For a negative control, we used a non-silencing shRNA sequence cloned into pShag Magic 2.0 (OpenBiosystems, cat. #RHS1703) from OpenBiosystems verified to contain no homology to known mammalian genes. About 30% confluent cells (3000 primary astrocytes) (Lee, J. H., et al., Glia., 50:66-79 (2005)) were transfected using SuperFect transfection reagent, purified vector (5 μg) DNA (Qiagen, Valencia, Calif.) and the manufacturer's recommended protocols. The post transfected astrocytes were selected on geneticin (10 μg/μl). The primary astrocytes were subjected to pressure (40 mm of Hg) and transfected with shRNA on plates immediately after they were brought to normal atmospheric pressure.

[3] abbreviates: astrocytes subjected to 40 mm Hg, transfected with shRNA immediately after return to atmospheric pressure, vs non-specific shRNA.

`C/C=C(/C)C(=O)O[C@H]1C(C)=C2[C@H]([C@@H]1OC(=O)CCCCCCC)[C@@](C)(OC(C)=O)C[C@H](OC(=O)CCC)[C@@]1(O)[C@H]2OC(=O)[C@@]1(C)O` [Thapsigargin]: the “expression of PAD 2 protein (Western)” value with PAD 2 is listed as “seems not to show a great increase in PAD 2 expression”.
Same read-out and setting: under `CC(=O)OCOC(=O)CN(CC(=O)OCOC(C)=O)c1ccccc1OCCOc1ccccc1N(CC(=O)OCOC(C)=O)CC(=O)OCOC(C)=O` [BAPTA-AM] stands “reduces expression of PAD 2 protein”.
Turning to `COc1ccc(CCN(C)CCCC(C#N)(c2ccc(OC)c(OC)c2)C(C)C)cc1OC` (centres unmarked) [verapamil], the “optic nerve PAD2 level (Western, relative to GPDH)” value with PAD2 [1] was “appeared lower”.

B1: PAD2 specific shRNA: shRNA against PAD2 (OpenBiosystems, Cat. #RHS 1764-9214220) in pShag Magic version 2.0 vector, SEQ ID NO: 7 (nucleic acid)
chain: TGCTGTTGACAGTGAGCGACAGCCTTGACTCATTTGGAAATAGTGAAGCCACAGATGTATTTCCAAATGAGTCAAGGCTGGTGCCTACTGCCTCGGA
As for B1, the “Differences in cell morphology due to reduction in mRNA” value in the series on PAD2 [2] was “not observed”. For the same molecule, in the series on PAD2 [2] (setting [3]), the “PAD2 expression (anti-PAD2 Western analysis)” value is “reduced PAD2 expression” and the “citrullination (anti-citrulline Western analysis)” value is “reduced citrullination”. Further, in the series with PAD2 [2] (isolated astrocytes, 5 hours or 4 days at atmospheric pressure after 40 mm Hg, compared to untreated group), the “PAD 2 by immunohistochemical analysis” value was “reduced”. Besides, the “PAD2 mRNA (Northern analysis of total RNA)” value in the series with PAD2 [2] (pressure treated astrocytes transfected with shRNA, within the sensitivity of detection) is given as “completely removed”.
